According to the DeepSol protein solubility set:

Assay: soluble on expression in E. coli; label from the status in PepcDB or PDB records

| Sequence | soluble on expression in E. coli |
| --- | --- |
| MGSDKIHHHHHHMKSIKELYRIGTGPSSSHTMGPRKAAEMFLTRHPEAASFKVTLYGSLAATGKGHMTDVAIIDTLKPTAPVDIIWQPKIFLPFHPNGMNFVALDAGGNELENWTVYSVGGGALAEDNKQPSIESPEVYSMNSMTEILDWCEHTGKSYWEYVKECEDPDIWDYLKEVWDTMKESVQRGLEQEGVLPGPLNLRRKASTYYIRATGYKASLQSRGLVFAYALAVSEENASGGKIVTAPTCGSCGVMPAVLYHLAKSREFSEMRILRALATAGLIGNIVKQNASISGAEVGCQGEVGVACAMASAAANQLFGGSPAQIEYAAEMGLEHHLGMTCDPVCGLVQIPCIERNAYAAARALDANLYSSFTDGMHRVSFDKVIQVMKQTGHDLPSLYKETSEGGLAKDYKPM | not soluble |
| MSLEENMEGALFLENESFCEEIPDNPNIEKEKPLEFISSGNLEIDRKLEGGIPVGSLCLLEGAKDSGKSIFMQQIMWGALNQDKKVLALTTEKTSRNLLNNMESLKQDISDYFIIGRSKIFEINASDVEENPEISENLLEIMLECIKECEEELILIDSLTILAVNASENTLLNFFRECIKLCDKKKTILISVHGYAFSQEVLYRLRSVCNSCLELRIEQVGDKLIKTMEIQKLRGAKKTTGNMLSFDVNSECGLKIIPVSKVKAEGHHHHHH | soluble |
| MGSDKIHHHHHHGADFVKGDRTFAADAELGATVTTGNTETTSLKGRLDMKHELGNWENQYLLEALYKEDSGEETGKRYYGLVQGNYKFSDVNYMFANANHEIDPFTGFDSKSTISAGYGHKFVDTEKTTFAVEVGPGFQYKRLDDESAAEAGYDTEESWVAHGVMNFETEITDNSKFKQLFVADYGESLEGRSETSITANIVGALAMKFAVIVRYNSEPLDNKKSTDTETNMTLLYSF | not soluble |
| MSNVHPYTIFATMPHKSTAKDILIMSYDLSKRLVIGLASSALFDLSESDNIFRMEGAETYRQYQREKQNHPLKKALSFHLLKNFCQSMK | not soluble |
| MSLIYFETERLIARDYLTNDYLPFSQMNADEQVMKYFPARLTQNESNAFLDRIQEELKSLGYGLFAIEVKSTGEFIGFTGFHEATFEATFTPCTEIGWRLKHSAWNQGYATEAALGALALAEEINTINEIYSFTAALNKPSENVMKKIHLTKIATFEHPALVNGDPLKPHVLYKKAEGHHHHHH | soluble |
| MIMNHMPKKIVIIGAGAGGGISLSQLRRALSNEDVEITIIDQTGRTDFQPSYVFLALGEKKPEEISRDISQLNDSRVRAVKDTVISVDAANRVVKTSGGSYQYDYLIMSPGPSIDPSSLKGHEATHSVWTMEDSLRLRDAVKNFKGGNVLISVSTQWYKCPPVPWEMALLLDDYFRRKNIRDKVKITVAHPVSRPMEMYGPGLSEPFSKMLDDRNIEGIYGRRVSSVDAEKKRAIMDNGETVGFDLSIVAPPHLPPDFIKNNDDLRSPRGWAATNIRDFRNPKYEDVFAIGDVIAPTIQIGMAGVLAHFQADTVSSAIAEEIAGYPFMEYNKVAVCIIATGGSGVFSYCDLAGKLTDPKVKFPECRMIGNDPLFRFAHDLYEVNFLSSIYGSRLEHHHHHH | not soluble |
| MKLLRYGPVGEERPALLDELGEIRDLSAHIEDISGKFLLPATLYKLRQLDSASLPLVRGEQRLGACVGHVGKFICVGLNYADHAAETGAEIPQEPVIFNKWTSAIIGPNDDIEIPRNSVKTDWEVELGVVIGTGGRYIGEANAMSYVAGYCVVNDISEREFQLEHGGTWDKGKGCDTFGPIGPWLVTRDEIPDPHQLGLWLDVDGRRYQNGSTRTMIFKIPQIISYLSRFMSLQSGDVISTGTPPGVGLGQKPPVYLHAGQIMRLGIEGLGEQCQKTIQA | not soluble |
| MGSDKIHHHHHHMSNQRYMMRGVSASKEDVHNAIKNIDKGIFPKAFCKIIPDILGGDPEYCNIMHADGAGTKSSLAYMYWKETGDLSVWKGIAQDALIMNIDDLLCVGAVDNILVSSTIGRNKLLIPGEVISAIINGTDELLAELREMGVGVYATGGETADVGDLVRTIIVDSTVTCRMKRSDVINNANIRPGDVIVGLASYGQATYEKEYNGGMGSNGLTSARHDVFGKYLAEKYPESYDAAVPEELVYSGGLKLTDTVEDSPIDAGKLVLSPTRTYAPVVKKLLDTLRPEIHGMVHCSGGAQTKVLHFVENVRVVKDNLFPVPPLFKTIQEQSGTDWAEMYKVFNMGHRLEVYLSPEHAEEVIAISESFGIPAQIVGRIEACDQTELIIKSEFGEFRY | not soluble |
| MSSPGGETSTKQQQELKAQIKIGHYILKETLGVGTFGKVKVGIHETTQYKVAVKILNRQKIKSLDVVGKIRREIQNLSLFRHPHIIRLYQVISTPSDIFMIMEHVSGGELFDYIVKHGRLKTAEARRFFQQIISGVDYCHRHMVVHRDLKPENLLLDEQNNVKIADFGLSNIMTDGDFLRTSCGSPNYAAPEVISGKLYAGPEVDVWSCGVILYALLCGTLPFDDEHVPSLFRKIKSGVFPTPDFLERPIVNLLHHMLCVDPMKRATIKDVIAHEWFQKDLPNYLFPPINESEASIVDIEAVREVTERYHVAEEEVTSALLGDDPHHHLSIAYNLIVDNKRIADETAKLSIEEFYQVTPNKGPGPVHRHPERIAASVSSKITPTLDNTEASGANRNKRAKWHLGIRSQSRPEDIMFEVFRAMKQLDMEWKVLNPYHVIVRRKPDAPAADPPKMSLQLYQVDQRSYLLDFKSLADEESGSASASSSRHASMSMPQKPAGIRGTRTSSMPQAMSMEASIEKMEVHDFSDMSCDVTPPPSPGGAKLSQTMQFFEICAALIGTLAR | not soluble |
| MKSLRFQSVFDIIGPVMIGPSSSHTAGAVRIGKIVSSIFDDTPTEVEFQLFNSFAKTYRGHGTDLALVAGILGMDTDDPEIPNSLEIAHKRGIKIVWTIQKDSNAPHPNTTKITVKNAHKTISVTGISIGGGNIQVTELNGF | not soluble |
| MKEVYRYAYHYAGRPVGEGRLEVERRRGGVRASLQAEFLPPLPPGRQRWQTELDAEGFSLRFQERVEGKEVRVFAVERLEEEGVVLVSQGKESLAYPYLAPYHDPLSLFLALPGLALEPGEVVRFPMPGGRVYVERLPDVEVEGRARRQYRLRPGLSLVQVEEGRLVRVAQQVGRHVFEAVLLEAEGP | soluble |
| MNVSFSTPVQNSTASRLALIQQAAARSGALPPAGQYRGSKLSPFDVSQMSGVSISMVERAKINGPEFVEELEWLRQQTTSRCFLDAEMWTNEILAHLPDKWCAPNTLNLYNQVSELVLDNTRSPMASPASNSLYAPGEDQMPTVKRNHTSRFAQSLIKNKEFRRAAFFLEKTMNGNKLDHFLHFRCLFLAYYQEHLENDAEGIERKTSFAEERSPFSLLYQRMEDKKLRENEDVWFEYLMGLLEVELGLKDLAEKSFRNVVIREPRIWPAWEALSRLIADIEDADKFVTSAEVKSLWMGDWFMTLVLQRFHQHSMAIQKAEQLVTRGMTGLPMIITKIAACSNARHDHDQAISNFEDVRKADPYRLGDLHLLSDSLYIRNDQKKLSTLAIEVYKVHKFRWETCCIVANYHAIRRDSEHAIKFFQRALRLNPGLAALWVLIGHEFMEMKNNAAACVSYRRAIEIDPADHRGWYGLGQMYDIMKMPAYALFYYQEAQKCKPHDSRLLVALGDIYSKLNRIEDAEKCFTGAYLFGDVEGNALWSLAKLHERYSDDNKAAQAFEVFLVVYELVTSAEEKIIYAIAFLANHFFKIEDFDKASEYATKCLAFETLCQEGNRLFREIAKIQARESRLPVEEAPGPSNASAAGGQEAMDTEEAPQEGGEEEMSEGEDDFSF | not soluble |
| MRINKPFSDDSNTVVFVSSKTYGVKEEAAHNPNVEFGVVLPTDFPAFNRALVQFLKRKKTKLNINLDSLIELYKKNENSGCFHTAIKTVITSVTFCETTPFTMKTKPEKNVEVAVQCAVEYHNLVKEYET | not soluble |
| MVGGGLSTDIAGGRTMTCEFRNSRCISDDDDLIRMKEDDTETQKSEFHRKASGFFLRGSGYCRSIFRVSENLEKDWQACNRRAYMSGLVDYQSMARKAYEKLQELGISRHVTPLFAENVTVPIPGVVFLDCVVNDMTLISRIAGLVARAAFHIKNESPQHGLIEVGAPYNLVDNISYPGLIRFCGKVRNNLGNNYNIQCDIFQMCQFGARSLGSVHNTITVTVAAAAPIPNLVPRGILAPPPPPPPLPLPPVRRRAPKVLNLQKFIDAYQPVQSTGYPIGTPAAAAAVEKESAAPVVPENAEKEVAPKIAQKLELCGTPCKIKAEPEDEDIIILKHIAPNTDGGVKRVGSRNKIGKRSQKLKTRRL | not soluble |
| MSWQTYVDDHLMCDIDGHRLTAAAIIGHDGSVWAQSSSFPQFKSDEVAAVMKDFDEPGSLAPTGLHLGGTKYMVIQGEPGAVIRGKKGSGGITVKRTGQALIIGIYDEPLTPGQCNMIVERLGDYLLDQGL | soluble |
